From US20250163164A1 (LANOVA MEDICINES DEVELOPMENT, published 2025)
Substitutions are numbered along the chain they refer to. Where “and” joins values, the source holds several entries; their conditions need not be identical. Identical values can stand only once.

T1: human interleukin 13 receptor subunit alpha 2 (IL-13RA2) (human, UniProt Q14627 27-380)
T1 construct: whole, on cells; also called IL-13Rα2; CD213A2
T1 sequence (looked up): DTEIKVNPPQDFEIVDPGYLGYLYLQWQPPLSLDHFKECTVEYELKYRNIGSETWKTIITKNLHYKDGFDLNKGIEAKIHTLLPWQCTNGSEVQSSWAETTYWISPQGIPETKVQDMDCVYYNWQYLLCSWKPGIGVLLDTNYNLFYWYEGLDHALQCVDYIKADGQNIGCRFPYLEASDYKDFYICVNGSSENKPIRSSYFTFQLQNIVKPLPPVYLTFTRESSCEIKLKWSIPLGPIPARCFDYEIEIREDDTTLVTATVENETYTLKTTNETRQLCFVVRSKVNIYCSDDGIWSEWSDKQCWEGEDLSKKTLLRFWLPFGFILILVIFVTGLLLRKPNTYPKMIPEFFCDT

B1: 72B4H4 H2L1 hIgG1 (antibody, V domains shown)
VH: QVQLVQSGAEVVKPGASVKVSCKASGYTFTNYWMNWVRQAPGQGLEWIGRIDAYAGETHYNQKFKDRVTMTVDTSTSTVYMELSSLRSEDTAVYYCARGYGDAYGMDHWGQGTLVTVSS
VL: DIQMTQSPSSLSASVGDRVTITCRASESVDNYGISFMNWYQQKPGKAPKLLIYAASRQGSGVPSRFSGSGSGTDFTLTISSLQPEDFATYYCQQSKEVPWTFGQGTKVEIK
notes: humanized, hIgG1
B2: 72B4H4 H4L4 hIgG1 (antibody, V domains shown)
VH: B1 VH with V20L, R38K, A40R, V68A, T69I, M70L, T74K, V79A, S84R
VL: B1 VL with Q3V, M4L, V19A, Y40F, A47P, V62D, S64A, Y91F, Q104G, V108L
notes: humanized, hIgG1
B3: 72B4H4 H3L1 hIgG1 (antibody, V domains shown)
VH: B1 VH with V20L, R38K, V68A, M70L, T74K
VL: B1 VL
notes: humanized, hIgG1
B4: 72B4H4 H4L1 hIgG1 (antibody, V domains shown)
VH: B1 VH with V20L, R38K, A40R, V68A, T69I, M70L, T74K, V79A, S84R
VL: B1 VL
notes: humanized, hIgG1
B5: 72B4H4 H3L4 hIgG1 (antibody, V domains shown)
VH: B1 VH with V20L, R38K, V68A, M70L, T74K
VL: B1 VL with Q3V, M4L, V19A, Y40F, A47P, V62D, S64A, Y91F, Q104G, V108L
notes: humanized, hIgG1
B6: 72B4H4 H4L2 hIgG1 (antibody, V domains shown)
VH: B1 VH with V20L, R38K, A40R, V68A, T69I, M70L, T74K, V79A, S84R
VL: B1 VL with Y40F, V62D, Y91F
notes: humanized, hIgG1
B7: 72B4H4 H3L3 hIgG1 (antibody, V domains shown)
VH: B1 VH with V20L, R38K, V68A, M70L, T74K
VL: B1 VL with M4L, Y40F, V62D, S64A, Y91F, Q104G
notes: humanized, hIgG1
B8: 72B4H4 H2L4 hIgG1 (antibody, V domains shown)
VH: B1 VH
VL: B1 VL with Q3V, M4L, V19A, Y40F, A47P, V62D, S64A, Y91F, Q104G, V108L
notes: humanized, hIgG1
B9: 72B4H4 H4L3 hIgG1 (antibody, V domains shown)
VH: B1 VH with V20L, R38K, A40R, V68A, T69I, M70L, T74K, V79A, S84R
VL: B1 VL with M4L, Y40F, V62D, S64A, Y91F, Q104G
notes: humanized, hIgG1
B10: 72B4H4 H3L2 hIgG1 (antibody, V domains shown)
VH: B1 VH with V20L, R38K, V68A, M70L, T74K
VL: B1 VL with Y40F, V62D, Y91F
notes: humanized, hIgG1
B11: 72B4H4 H2L3 hIgG1 (antibody, V domains shown)
VH: B1 VH
VL: B1 VL with M4L, Y40F, V62D, S64A, Y91F, Q104G
notes: humanized, hIgG1
B12: 73A11E2 H2L2 hIgG1 (antibody, V domains shown)
VH: QVQLVQSGAEVVKPGASVKVSCKASGFTFSSYGMSWVRQAPGQGLEWVGTISGGGSYTYYPESVKGRFTITRDTSTSTAYMELRSLRSDDTAVYYCARRDLRSAMDYWGQGTLVTVSS
VL: DIVMTQSPLSLPVTLGQPASISCKASQNVDINVAWYQQRPGQSPRALIYSASYRYSGVPDRFSGSGSGTDFTLKISRVEAEDVGVFYCQQYNAYPLTFGQGTKLEIK
notes: humanized, hIgG1
B13: 73A11E2 H2L1 hIgG1 (antibody, V domains shown)
VH: B12 VH
VL: B12 VL with I2V, Y36F, A46R, F86Y
notes: humanized, hIgG1
B14: 73A11E2 H2L4 hIgG1 (antibody, V domains shown)
VH: B12 VH
VL: B12 VL with V13T, A19V, I21V, K74T, G84A, Y87F, Q100G
notes: humanized, hIgG1
B15: 73A11E2 H1L3 hIgG1 (antibody, V domains shown)
VH: B12 VH with V12K, V48M, F68V, I70M, R72T
VL: B12 VL with V13T, K74T, Q100G
notes: humanized, hIgG1
B16: 73A11E2 H2L3 hIgG1 (antibody, V domains shown)
VH: B12 VH
VL: B12 VL with V13T, K74T, Q100G
notes: humanized, hIgG1

molecular target: T1, human interleukin 13 receptor subunit …; test: FACS on A375 cells
Description: A375 cells that endogenously expressed IL-13RA2, were harvested from flasks. 100 μl of 1×10⁶ cells/ml of cells were incubated with primary humanized antibodies in 4-fold serial dilutions starting from 200 nM to 0.003 nM for 30 minutes on ice. After being washed with 200 μl of FACS buffer twice, cells were incubated with secondary antibody for 30 minutes on ice. Cells were washed with 200 μl of FACS buffer twice and analyzed by FACS.

Binder	EC50	Top (MFI)
B1	2.75 nM	8360 MFI
B2	1.18 nM	8180 MFI
B3	1.14 nM	8830 MFI
B4	0.552 nM	8270 MFI
B5	1.36 nM	8770 MFI
B6	0.976 nM	8610 MFI
B7	1.66 nM	8780 MFI
B8	1.18 nM	8630 MFI
B9	0.811 nM	8470 MFI
B10	1.44 nM	8550 MFI
B11	0.83 nM	8420 MFI
B12	0.67 nM	–
B13	0.6 nM and 0.56 nM	–
B14	1.61 nM and 0.66 nM	–
B15	~251 nM and ~522 nM	–
B16	0.69 nM and 0.67 nM	–
